Laboratory results published in PMC10580383, “Development of Melanocortin 4 Receptor Agonists by Exploiting Animal-Derived Macrocyclic, Disulfide-Rich Peptide Scaffolds” (ACS Pharmacology & Translational Science, 2023).
Bridges are numbered along the chain shown (N, C = ends). Where no end group is shown, it is not given here. [ ]: non-standard residue; d: D form.

Key:
[1] = target: human melanocortin 4 receptor with LgBit fused at the C-terminus (human) (UniProt P32245)
[2] = target: human melanocortin 4 receptor with C-terminally fused SmBit (human) (UniProt P32245)
[3] = target: mouse melanocortin 4 receptor fused to EGFP (mouse) (UniProt P56450)
[4] = target: mouse melanocortin 4 receptor fused to EGFP (mouse) (UniProt P56450); remark: listed apart in the source

Chain of human melanocortin 4 receptor with C-terminally fused SmBit (human) (P32245 whole entry, the tested form may be a part): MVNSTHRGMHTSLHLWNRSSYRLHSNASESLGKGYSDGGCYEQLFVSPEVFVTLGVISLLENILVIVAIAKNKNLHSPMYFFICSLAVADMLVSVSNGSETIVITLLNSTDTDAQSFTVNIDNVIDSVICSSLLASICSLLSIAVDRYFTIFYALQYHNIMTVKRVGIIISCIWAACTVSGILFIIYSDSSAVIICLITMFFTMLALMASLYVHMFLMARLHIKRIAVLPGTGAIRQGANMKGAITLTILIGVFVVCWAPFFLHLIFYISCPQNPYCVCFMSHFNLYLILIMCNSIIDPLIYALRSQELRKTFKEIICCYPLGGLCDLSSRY
Chain of human melanocortin 4 receptor with LgBit fused at the C-terminus (human) (P32245 whole entry, the tested form may be a part): as above
Chain of mouse melanocortin 4 receptor fused to EGFP (mouse) (P56450 whole entry, the tested form may be a part): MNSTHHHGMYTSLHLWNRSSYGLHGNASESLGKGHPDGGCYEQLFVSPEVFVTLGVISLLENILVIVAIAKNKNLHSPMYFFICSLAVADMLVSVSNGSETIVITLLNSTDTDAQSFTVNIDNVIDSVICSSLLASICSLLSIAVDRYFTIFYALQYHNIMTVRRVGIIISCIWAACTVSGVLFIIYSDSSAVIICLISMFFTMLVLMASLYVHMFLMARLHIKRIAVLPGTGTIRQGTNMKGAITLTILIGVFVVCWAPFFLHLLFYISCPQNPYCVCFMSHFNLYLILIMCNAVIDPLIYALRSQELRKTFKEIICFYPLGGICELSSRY

α-MSH (peptide) was tested, and the coupling of Gαs-SmBit to MC4R-LgBit (nanoluciferase complementation, live cells): EC50 [1] was 1 nM.

B1: protegrin-4-like peptide 1 (peptide)
peptide: RGGRLCYCPH[dF]HWCFCVGR-NH2
modifications: disulfide 8-14, 6-16; N-terminus assumed
SMILES: CC(C)C[C@H](NC(=O)[C@H](CCCNC(=N)N)NC(=O)CNC(=O)CNC(=O)[C@@H](N)CCCNC(=N)N)C(=O)N[C@H]1CSSC[C@@H](C(=O)N[C@H](C(=O)NCC(=O)N[C@@H](CCCNC(=N)N)C(N)=O)C(C)C)NC(=O)[C@H](Cc2ccccc2)NC(=O)[C@@H]2CSSC[C@H](NC(=O)[C@H](Cc3ccc(O)cc3)NC1=O)C(=O)N1CCC[C@H]1C(=O)N[C@@H](Cc1c[nH]cn1)C(=O)N[C@H](Cc1ccccc1)C(=O)N[C@@H](Cc1c[nH]cn1)C(=O)N[C@@H](Cc1c[nH]c3ccccc13)C(=O)N2
In the case of B1, the coupling of Gαs-SmBit to MC4R-LgBit (nanoluciferase complementation, live cells): EC50 [1] is reported as 0.193 nM, the coupling of Gαs-SmBit to MC4R-LgBit (nanoluciferase complementation, live cells): efficacy above that of α-MSH (% more efficacious than α-MSH) [1] is reported as 8.8 and the recruitment of β-arrestin-2-LgBit to MC4R-SmBit (nanoluciferase complementation, live cells): EC50 [2] is reported as 23.5 nM. For the same molecule, the recruitment of β-arrestin-2-LgBit to MC4R-SmBit (nanoluciferase complementation, live cells): increase in efficacy (Emax) over α-MSH (% increase in efficacy compared to α-MSH) [2] was 99, the cAMP accumulation (Cisbio HTRF) in HEK293 cells transiently expressing mouse MC4R-EGFP: EC50 [3] was 3.7 nM and the cAMP accumulation (Cisbio HTRF) in HEK293 cells transiently expressing mouse MC4R-EGFP: Emax (normalised to NDP-α-MSH) [3] was 96%. For the same molecule, the recruitment of β-arrestin-2-nanoluciferase to MC4R-EGFP (kinetic BRET, HEK293 cells), 10 μM peptide: BRET efficiency relative to NDP-α-MSH (100) [4] was over 130%.

B2: arenicin-3-like peptide 2 (peptide)
peptide: GFCWYVCVYPH[dF]HWVCYRRCN-NH2
modifications: disulfide 7-16, 3-20; N-terminus assumed
SMILES: CC(C)[C@@H]1NC(=O)[C@H](Cc2c[nH]c3ccccc23)NC(=O)[C@H](Cc2c[nH]cn2)NC(=O)[C@@H](Cc2ccccc2)NC(=O)[C@H](Cc2c[nH]cn2)NC(=O)[C@@H]2CCCN2C(=O)[C@H](Cc2ccc(O)cc2)NC(=O)[C@H](C(C)C)NC(=O)[C@@H]2CSSC[C@H](NC1=O)C(=O)N[C@@H](Cc1ccc(O)cc1)C(=O)N[C@@H](CCCNC(=N)N)C(=O)N[C@@H](CCCNC(=N)N)C(=O)N[C@H](C(=O)N[C@@H](CC(N)=O)C(N)=O)CSSC[C@H](NC(=O)[C@H](Cc1ccccc1)NC(=O)CN)C(=O)N[C@@H](Cc1c[nH]c3ccccc13)C(=O)N[C@@H](Cc1ccc(O)cc1)C(=O)N[C@@H](C(C)C)C(=O)N2
For B2, the cAMP accumulation (Cisbio HTRF) in HEK293 cells transiently expressing mouse MC4R-EGFP: EC50 [3] was 18 nM, the cAMP accumulation (Cisbio HTRF) in HEK293 cells transiently expressing mouse MC4R-EGFP: Emax (normalised to NDP-α-MSH) [3] was 95% and the recruitment of β-arrestin-2-nanoluciferase to MC4R-EGFP (kinetic BRET, HEK293 cells), 10 μM peptide: BRET efficiency relative to NDP-α-MSH (100) [4] was over 130%.

B3: arenicin-3-like peptide 1 (peptide)
peptide: GFCWYVCPH[dF]HWCYRRCN-NH2
modifications: disulfide 7-13, 3-17; N-terminus assumed
SMILES: CC(C)[C@@H]1NC(=O)[C@H](Cc2ccc(O)cc2)NC(=O)[C@H](Cc2c[nH]c3ccccc23)NC(=O)[C@@H](NC(=O)[C@H](Cc2ccccc2)NC(=O)CN)CSSC[C@@H](C(=O)N[C@@H](CC(N)=O)C(N)=O)NC(=O)[C@H](CCCNC(=N)N)NC(=O)[C@H](CCCNC(=N)N)NC(=O)[C@H](Cc2ccc(O)cc2)NC(=O)[C@@H]2CSSC[C@H](NC1=O)C(=O)N1CCC[C@H]1C(=O)N[C@@H](Cc1c[nH]cn1)C(=O)N[C@H](Cc1ccccc1)C(=O)N[C@@H](Cc1c[nH]cn1)C(=O)N[C@@H](Cc1c[nH]c3ccccc13)C(=O)N2
B3 gave a coupling of Gαs-SmBit to MC4R-LgBit (nanoluciferase complementation, live cells): EC50 [1] of 0.702 nM, a coupling of Gαs-SmBit to MC4R-LgBit (nanoluciferase complementation, live cells): efficacy above that of α-MSH (% more efficacious than α-MSH) [1] of 25 and a recruitment of β-arrestin-2-LgBit to MC4R-SmBit (nanoluciferase complementation, live cells): EC50 [2] of 25.2 nM. The recruitment of β-arrestin-2-LgBit to MC4R-SmBit (nanoluciferase complementation, live cells): increase in efficacy (Emax) over α-MSH (% increase in efficacy compared to α-MSH) [2] was 82, the cAMP accumulation (Cisbio HTRF) in HEK293 cells transiently expressing mouse MC4R-EGFP: EC50 [3] was 1 nM and the cAMP accumulation (Cisbio HTRF) in HEK293 cells transiently expressing mouse MC4R-EGFP: Emax (normalised to NDP-α-MSH) [3] was 98%. It also gave a recruitment of β-arrestin-2-nanoluciferase to MC4R-EGFP (kinetic BRET, HEK293 cells), 10 μM peptide: BRET efficiency relative to NDP-α-MSH (100) [4] of over 130%.
